Numbering of substitutions follows the chain as printed. Numbers in names are those of the source.

First the molecules themselves.
B1: target 1 insC 3' of 8,insA 3' of 8 (mixed)
RNA 1: CACCCGUGCAAAAAUGCAGGGGUCUAAAACUGAGCGGAUAACCUCUCUAUGG
RNA 2: GGGAAUGGAUCCACAUCUACGAAUUCGUACCAUAGAGAGGUUAUCACCGCUCACCGAGAUCGGAAGAGCACACGU
B2: target 1 insA 3' of 5,insG 3' of 1 (mixed)
RNA 1: B1 RNA 1
RNA 2: B1 RNA 2 with A46C, C47G, C48A, G49C, C50U, U51C, C52A, A53G
B3: target 1 U8C,C22A (mixed)
RNA 1: B1 RNA 1
RNA 2: GGGAAUGGAUCCACAUCUACGAAUUCGUAACAUAGAGAGGUUACCCGCUCACCGAGAUCGGAAGAGCACACGU
B4: target 3 insC 3' of 5,insU 3' of 3 (mixed)
RNA 1: CACCCGUGCAAAAUUGCAGGGGUCUAAAACGACCUGAAUAUUUCAGAUCAAA
RNA 2: GGGAAUGGAUCCACAUCUACGAAUUCGUUUUUGAUCUGAAAUAUUCACGGUUCUGCAGAUCGGAAGAGCACACGU
B5: target 3 insG 3' of 9,insA 3' of 4 (mixed)
RNA 1: B4 RNA 1
RNA 2: B4 RNA 2 with U44G, C46U, A47C, C48A, G50A, U51G
B6: target 3 insC 3' of 22,insU 3' of 4 (mixed)
RNA 1: B4 RNA 1
RNA 2: GGGAAUGGAUCCACAUCUACGAAUUCGUUUCUUGAUCUGAAAUAUUCAGUGUCUGCAGAUCGGAAGAGCACACGU
B7: target 3 C1U,U22G (mixed)
RNA 1: B4 RNA 1
RNA 2: GGGAAUGGAUCCACAUCUACGAAUUCGUUGUUGAUCUGAAAUAUUCAGGUUUGCAGAUCGGAAGAGCACACGU
B8: target 3 insU 3' of 22,insA 3' of 4 (mixed)
RNA 1: B4 RNA 1
RNA 2: B6 RNA 2 with C31U, U50A
B9: target 3 insU 3' of 16,insG 3' of 1 (mixed)
RNA 1: B4 RNA 1
RNA 2: GGGAAUGGAUCCACAUCUACGAAUUCGUUUUUGAUCUUGAAAUAUUCAGGUCGUGCAGAUCGGAAGAGCACACGU
B10: target 3 U7A,U8A (mixed)
RNA 1: B4 RNA 1
RNA 2: B7 RNA 2 with G30U, U44A, U45A, U51C
B11: target 3 U7C,U22A (mixed)
RNA 1: B4 RNA 1
RNA 2: B7 RNA 2 with G30A, U45C, U51C
B12: target 3 C6A,U7A (mixed)
RNA 1: B4 RNA 1
RNA 2: B7 RNA 2 with G30U, U45A, C46A, U51C
B13: target 3 insA 3' of 21,insC 3' of 5 (mixed)
RNA 1: B4 RNA 1
RNA 2: B6 RNA 2 with C31U, U32A, G49C, U50G
B14: target 3 insU 3' of 6,insU 3' of 5 (mixed)
RNA 1: B4 RNA 1
RNA 2: B4 RNA 2 with A47U, C48A, G49U, U51G
B15: target 3 insU 3' of 22 (mixed)
RNA 1: B4 RNA 1
RNA 2: GGGAAUGGAUCCACAUCUACGAAUUCGUUUUUUGAUCUGAAAUAUUCAGGUCUGCAGAUCGGAAGAGCACACGU
B16: target 3 A11C,U15C (mixed)
RNA 1: B4 RNA 1
RNA 2: B7 RNA 2 with G30U, U37C, A41C, U51C
B17: target 3 U2C,A11C (mixed)
RNA 1: B4 RNA 1
RNA 2: B7 RNA 2 with G30U, A41C, U50C, U51C
B18: target 3 U7C,U8A (mixed)
RNA 1: B4 RNA 1
RNA 2: B7 RNA 2 with G30U, U44A, U45C, U51C
B19: target 3 insA 3' of 7,insG 3' of 5 (mixed)
RNA 1: B4 RNA 1
RNA 2: B4 RNA 2 with C46A, A47C, C48A, U51G
B20: target 3 complement block 13-15 (mixed)
RNA 1: B4 RNA 1
RNA 2: B7 RNA 2 with G30U, U37A, G38C, A39U, U51C
B21: target 3 insG 3' of 1,insG 3' of 1 (mixed)
RNA 1: B4 RNA 1
RNA 2: B4 RNA 2 with C48G, G50U, U51C, U52G, C53G
B22: target 3 insU 3' of 22,insU 3' of 19 (mixed)
RNA 1: B4 RNA 1
RNA 2: GGGAAUGGAUCCACAUCUACGAAUUCGUUUUUUGUAUCUGAAAUAUUCAGGUCUGCAGAUCGGAAGAGCACACGU
B23: target 3 del2,del19 (mixed)
RNA 1: B4 RNA 1
RNA 2: GGGAAUGGAUCCACAUCUACGAAUUCGUUUUUAUCUGAAAUAUUCAGGCUGCAGAUCGGAAGAGCACACGU
B24: target 3 G3A,U8G (mixed)
RNA 1: B4 RNA 1
RNA 2: B7 RNA 2 with G30U, U44G, G49A, U51C
B25: target 3 insG 3' of 5,insA 3' of 4 (mixed)
RNA 1: B4 RNA 1
RNA 2: B4 RNA 2 with C48G, G50A, U51G
B26: target 3 insC 3' of 9,insG 3' of 2 (mixed)
RNA 1: B4 RNA 1
RNA 2: B4 RNA 2 with U44C, C46U, A47C, C48A, U52G
B27: target 3 insA 3' of 21,insA 3' of 21 (mixed)
RNA 1: B4 RNA 1
RNA 2: B22 RNA 2 with U32A, U33A, G34U, U35G
B28: target 3 complement block 1-3 (mixed)
RNA 1: B4 RNA 1
RNA 2: B7 RNA 2 with G30U, G49C, U50A, U51G
B29: target 3 U2A,G3C (mixed)
RNA 1: B4 RNA 1
RNA 2: B7 RNA 2 with G30U, G49C, U50A, U51C
B30: target 3 insA 3' of 10 (mixed)
RNA 1: B4 RNA 1
RNA 2: B15 RNA 2 with U33G, G34A, A35U, U36C, C37U, U38G, G39A, A42U, U43A
B31: target 3 insA 3' of 4,insG 3' of 2 (mixed)
RNA 1: B4 RNA 1
RNA 2: B4 RNA 2 with C48G, G49A, U52G

The target of the data set is T1, EsCas13d, nuclease-dead (Eubacterium siraeum, UniProt B0MS50, R295A;H300A;R849A;H854A).
T1 sequence: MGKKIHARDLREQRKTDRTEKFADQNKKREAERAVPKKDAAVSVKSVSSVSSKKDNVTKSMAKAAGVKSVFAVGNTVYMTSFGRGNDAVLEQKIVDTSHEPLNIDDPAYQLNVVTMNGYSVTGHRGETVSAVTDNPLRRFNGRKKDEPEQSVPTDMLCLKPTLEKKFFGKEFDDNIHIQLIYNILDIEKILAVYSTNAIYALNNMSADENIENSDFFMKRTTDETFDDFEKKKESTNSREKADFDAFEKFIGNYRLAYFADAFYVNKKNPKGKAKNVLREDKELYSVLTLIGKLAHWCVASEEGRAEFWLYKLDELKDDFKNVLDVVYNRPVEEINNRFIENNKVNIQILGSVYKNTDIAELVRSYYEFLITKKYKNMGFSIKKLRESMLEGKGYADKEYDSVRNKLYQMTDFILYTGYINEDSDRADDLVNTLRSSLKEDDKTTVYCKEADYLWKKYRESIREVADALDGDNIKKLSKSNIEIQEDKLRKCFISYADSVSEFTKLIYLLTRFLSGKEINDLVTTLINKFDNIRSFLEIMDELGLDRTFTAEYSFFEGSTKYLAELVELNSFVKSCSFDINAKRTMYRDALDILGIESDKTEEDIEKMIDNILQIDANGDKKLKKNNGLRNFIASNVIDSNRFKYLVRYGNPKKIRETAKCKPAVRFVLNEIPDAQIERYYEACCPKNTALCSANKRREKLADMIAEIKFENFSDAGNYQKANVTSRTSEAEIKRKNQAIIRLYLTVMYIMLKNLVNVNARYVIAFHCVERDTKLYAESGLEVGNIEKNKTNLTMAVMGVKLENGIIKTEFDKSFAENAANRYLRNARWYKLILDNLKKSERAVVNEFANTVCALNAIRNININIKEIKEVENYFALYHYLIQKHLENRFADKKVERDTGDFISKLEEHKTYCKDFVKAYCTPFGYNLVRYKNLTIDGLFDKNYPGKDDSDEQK
Briefly: crRNA (strand 1, pre-loaded); Mg2+; 40 mM Tris-HCl pH 7.5, 150 mM NaCl, 6 mM MgCl2, 1 mM DTT, 0.1% Tween-20, 0.2 mg/ml BSA; 25 C; 10 min per concentration, then washed. The note with it: tags: His6-TwinStrep-SUMO cleaved; N-terminal SNAP kept (SNAP-Surface 488); label: 3' end held by stalled T7 RNA polymerase.
On to B1, for which the Kd (in general, the free concentration of one partner at which half of the binding sites on the other are occupied at equilibrium, for simple one-to-one binding) was found to be 9.9 ± 0.5 nM. The molecule B2 showed a Kd of 5.4 ± 0.4 nM.

Regarding B3, the affinity, expressed as Kd, was 21.9 ± 2.2 nM.

B4 showed a Kd of 7.75 ± 0.6 nM. Molecule B5 displayed a Kd of 60 ± 26.5 nM. B6: the Kd was determined as 8.75 ± 2.3 nM. B7 gave a Kd of 77.5 ± 21 nM. Molecule B8 showed a Kd of 69.5 ± 15.5 nM. As to B9, the Kd turned out to be 45.5 ± 11.5 nM. B10 showed a Kd of 83 ± 15.5 nM. Take B11: the Kd was determined as 88.5 ± 21.5 nM.

In turn, B12 had a Kd of 46.5 ± 5 nM. The result for B13 reads 69.5 ± 11.5 nM; that for B14, 7.93 ± 0.61 nM; that for B15, 17.4 ± 1.8 nM. The molecule B16 came in with a Kd of 50 ± 9 nM. Next, B17: 54.5 ± 7.7 nM; B18: 114 ± 28 nM; B19: 42 ± 6.5 nM. Take B20: binding was put at a Kd of 67.8 ± 31.8 nM.

The molecule B21 displayed a Kd of 85 ± 31.5 nM. Molecule B22 yielded a Kd of 54 ± 14.5 nM. B23 gave a Kd of 98.5 ± 25 nM. B24 returned a Kd of 108 ± 33.5 nM. The result for B25 reads 9.2 ± 1.05 nM. B26 had a Kd of 81.5 ± 19 nM. As to B27, binding was put at a Kd of 29.8 ± 4.05 nM. B28 had a Kd of 23.1 ± 3.9 nM. With B29, binding was put at a Kd of 23.2 ± 2 nM. On to B30, for which the Kd amounted to 55.5 ± 13 nM. B31 registered a Kd of 49 ± 7 nM.

Values taken from PMC10786891, “Massively parallel profiling of RNA-targeting CRISPR-Cas13d”.
